Measured values taken from US20230398224A1.
Positions of bridges follow the written chain, without caps; N, C: chain ends. Non-standard residues stand in square brackets, D forms with d. Groups on a side chain read outwards from the residue. int‑CC7 = mannose-6-phosphonate M6PR ligand; Bip = N[C@@H](Cc1ccc(-c2ccccc2)cc1)C(=O)O; NMeA = CN[C@@H](C)C(=O)O

B1: Bifunctional compound (BFC-3) (peptide)
peptide: {CH2CO}-FVPTT[Bip][NMeA][Bip][NMeA]EAPCGK-NH2
modifications: thioether N-13; not fully specified (residue 15); also: further groups not given here

biological target: Purified recombinant full length human PCSK9 with C-terminal biotinylated Avitag (human) (UniProt Q8NBP7); assay: SPR, ProteOn XPR36; biotinylated human PCSK9 on NeutrAvidin NLC chip
Sequence (Q8NBP7 31-692): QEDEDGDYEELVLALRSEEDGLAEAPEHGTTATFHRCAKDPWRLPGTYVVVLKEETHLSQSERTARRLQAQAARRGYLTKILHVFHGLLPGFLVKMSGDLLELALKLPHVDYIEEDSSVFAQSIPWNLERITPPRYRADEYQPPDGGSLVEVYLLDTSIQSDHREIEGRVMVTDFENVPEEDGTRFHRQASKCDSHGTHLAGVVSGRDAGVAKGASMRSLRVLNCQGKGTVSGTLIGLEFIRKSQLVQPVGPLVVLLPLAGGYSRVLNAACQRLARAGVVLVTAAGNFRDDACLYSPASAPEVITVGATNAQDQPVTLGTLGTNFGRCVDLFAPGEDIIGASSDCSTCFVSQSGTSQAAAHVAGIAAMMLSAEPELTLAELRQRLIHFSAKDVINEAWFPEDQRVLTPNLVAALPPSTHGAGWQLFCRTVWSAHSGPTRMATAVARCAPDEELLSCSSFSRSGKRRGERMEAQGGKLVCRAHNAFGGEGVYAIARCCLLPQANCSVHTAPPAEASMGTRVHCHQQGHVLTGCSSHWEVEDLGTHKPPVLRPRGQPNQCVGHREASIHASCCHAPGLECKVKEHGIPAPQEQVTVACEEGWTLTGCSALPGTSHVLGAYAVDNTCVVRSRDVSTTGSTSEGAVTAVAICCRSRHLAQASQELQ

{CH2CO}-FVPTT[Bip][NMeA][Bip][NMeA]EAPCGK([Lys(4-oxopentanoyl)-int‑CC7])-NH2 (thioether N-13; not fully specified; also: further groups not given here) [Bifunctional compound (BFC-9)] and B1 are within 1.5-fold of each other in Kd: 7.4 nM for the first, 7.7 nM for the second.

For {CH2CO}-FVPTT[Bip][NMeA][Bip][NMeA]EAPCGK([Lys(4-oxopentanoyl)-int‑CC7])-NH2 (thioether N-13; not fully specified; also: further groups not given here) [Bifunctional compound (BFC-8)], the Kd was 4.9 nM.
